Data from the DeepSol protein solubility set.

Experiment: soluble on expression in E. coli; label from the status in PepcDB or PDB records

Sequence | soluble on expression in E. coli
MRRGRGKGKKQNASAREDRGSGDEEKIPAYRRRGRPQKPMKDDFEEEEEEDDEEMVEKMEVEDEDEEIDDGSVTSKDLKERKRKMSNGSNTDLTEEENGLGSKPNTDDSTRSTSIGFRQNGSRRKSKPRRAAEAVVECNGV | soluble
MRRKHDWLRETYRKSLEKIPERPVAHRTLSNIAPDPLYTPEDIGVLDPEYEEKRGFPGEFPYTRGVYGSMYRSKLWTMRMFAGFGTAEQTNERFKKLLKAGQTGLSVAFDLPTLMGYDSDHPLSKGEVGKCGVAVSSLADMEILFEGINLEEVTTSMTINSPANAIWAMYLAVAKKRGYDWKKLGGTIQNDILKEYIAQKEFIFPPEPSVKLVIDTFEWGPKNVPKWNFISVSGYHIREAGSTAVQELAWTLADGFEYVEAALKRGLDIDEFAPRISFFFDVHNDFFEEIAKFRAARRIWAKEMRYRYKAKNPQSWMLRTHAQTAGVSLTAQQPLNNIARVAIQALAAVLGGTNSLHTDAYDEALALPTEESATIALRTQQIIAYETGVTHTIDPLAGSYYVEWLTDEMERQAMEIIEEIRRMGGVVRAIEEGYFLRELAEASYRYQQEVERKERIIVGVNAFTDEIPLKVPIQLVDPEVERVQAERLARVRRERDPKRVEEALQGLRRAAVEGQNTMPHFVECALAYCTLGEMMDVLREVYGTYQEPAYV | soluble
MRRLKRDPLERAFLRGYQNGITGKSRDLCPFTHPTTRQSWLNGWREGRGDNWDGLTGTAGLQRLNQLQHVLEHHHHHH | not soluble
MRRLLKEQFEAELPEDIRFYMGGKSRVYAYKSCEFDEIASHRGIYFGTIERDGLRLSIEGSFIAGKLAKKNVIELDEESFGRWMRGEDIEADVKGYCIVKHGSYFAGCGKGNGRVLRNFVPKDRRVID | not soluble
MRRSGNYNPSRWDVNFIQSLLSDYKEDKHVIRASELVTLVKMELEKETDQIRQLELIDDLQRMGLSDHFQNEFKEILSSIYLDHHYYKNPFPKEERDLYSTSLAFRLLREHGFQVAQEVFDSFKNEEGEFKESLSDDTRGLLQLYEASFLLTEGETTLESAREFATKFLEEKVNEGGVDGDLLTRIAYSLDIPLHWRIKRPNAPVWIEWYRKRPDMNPVVLELAILDLNIVQAQFQEELKESFRWWRNTGFVEKLPFARDRLVECYFWNTGIIEPRQHASARIMMGKVNALITVIDDIYDVYGTLEELEQFTDLIRRWDINSIDQLPDYMQLCFLALNNFVDDTSYDVMKEKGVNVIPYLRQSWVDLADKYMVEARWFYGGHKPSLEEYLENSWQSISGPCMLTHIFFRVTDSFTKETVDSLYKYHDLVRWSSFVLRLADDLGTSVEEVSRGDVPKSLQCYMSDYNASEAEARKHVKWLIAEVWKKMNAERVSKDSPFGKDFIGCAVDLGRMAQLMYHNGDGHGTQHPIIHQQMTRTLFEPFA | soluble
MRSIYLCRHGESELNLRGRIGGDSGLSARGKQYAYALANFIRSQGISSLKVWTSHMKRTIQTAEALGVPYEQWKALNEIDAGVCEEMTYEEIQEHYPEEFALRDQDKYRYRYPKGESYEDLVQRLEPVIMELERQENVLVICHQAVMRCLLAYFLDKSSDELPYLKCPLHTVLKLTPVAYGCRVESIYLNV | soluble
MRSQSTHSQSMRSDIYLLLATLLRDVPSAELCAFLAELDFEANGTEMAKAWQAMSAAAQNAQADSLADEYQELFIGIGRGEVVPFASWHLTGSLMEKPLADIRDDLSRLGLERDEQVREPEDHISALCETMAYLCEESGDENAAEETQQAFFNRHIAPWFGKLVSQIRQAPHAQFYLAVAQLLDAFLSLEQVAMTQAPSSRKNRYRIEVKNLTDKAEQ | not soluble
MRSSKGGRGRQAAPKTAPTTVCYCDGKRELGSVEVVCSTCLKWFHGRCLKEFHELNSNGVPFMICYTFTCKQCRPTAEDWKAKKADLVQMCVTVLATLSAERLKADGKLSAEHVPEDFTYLSLKDEIVPYMNENWYMLTAIKQKKEWHQNLAPTLLKEKNIFVQHNDDDDLFALAEKNLSLLGPLHEAVKLIGKRPIERENREPRHIELPPIEGPKTRGASKRRHAEAPVTGKKQKLAADYSSTAAPNGVQIDIPFSKDNYRYYLTEVDPNVPEDPAWNQNQSSAYVIPSFHYRELLNPTVNVSSNDRAFQLSINGNSITGFEGYSMARASHGVSKGTWYFEVNFDDQPDDSHIRIGWSQSYASLQACVGYNKFSYGWRSKHGTKFHEAKGKKYHFGGFKQGDVLGCLIHLPVDKKLQIPANLPSEKYLPVSHKGFNLISFKANYFFEVQEESADIAKTLVEMPGSYIEFFHNGKSCGKAYENIYAGAYYPSISIFKSATATMNLGPKFRNLPRGATGIHARADEQQHEQTLSDMLYLVSKEVNLDHPPRVKREDDDDVKDIKKEIKQEI | not soluble
